Laboratory results from IntAct's records for PubMed 21385318.

B1: Kinase non-catalytic C-lobe domain-containing protein 1 (Mus musculus), Q0KK55 (parent)
chain: MQAMDPASRGFYEEDGKDLDFYDFEPLPTLPEDEENVSLADILSLRDRGLSEQEAWAVCLECSLSMRSVAHAAIFQTLCITPDTLAFNTSGNVCFMEQLSDDPEGAFVPPEFDLTGNTFEAHIYSLGATLKAALEYVPEPELEPKLSTDLEGLLSQMQAEDPRERPDLASIIALCEEKMQPVSSCRLCRSLSAIGRRVLSIESFGAFQELSENTWRGRPAPRNVGPKKMPGDLSTDPEALFPSKGLLQPPASRDAEQEAGQRPRAPSPKPLLSAPVRNGENPGQEGLADLVLDARCPLGELDRDNLRRSRLKKAQTFPRLLQESTETSTLCLSLNGSRNQLAISEFFPPDPRKLFLEGKNGLSGFKTQSKSRLWPEQEPGVQLDKTPGAGRNPHRSPGASGQLEASSPSQGSVEYKPSPSPVDAGDSDHEGHIPRSEEKIPEESRQPGSTATEQSLSLKDLLSKLGRPFREYELWALCLSCLSTLQTHKEHPAHLCLDNVLVAEDGTVFFGPPPANGAYNSLFLAPEVSEEKLVTEKASVYCVAAVLWTAAKFSVPRDHKLALPRRLKTLLLDMARRHASERPSAAEAIKVCSSYLLQRGMDSSKILAHLRASTCKVHPEEETIGLQNAFSVVELKSTTAPAPESSPGFLQVSNDTKLVAVPGPVPGLPPCCKEACELPAAFTSEATHFKPIVLAQDASVTRDQLALPSESNEKPKEGSGHLDREGTRKQAALELVEATDLKMSNQLSPGPELQGATPDPDGDSGSPSSATECSCPHGPALVTQQKGTSGTPSSPASSLPPEHRPDGEGPLGTTVLPGPTSASQGSRHPCKPPRGKAAASPSSPRGSDGHPEKPRPADRKLCPSSVDTSSPPKMTACPSLQEAMRLIQEEFAFDGYMDNGLEALIMGEYIYALKDLTFATFCGAISEKFCDLYWDEQLLKNLFKVVNGPASPSESTSEEPGSQPEHSPSRCSLSSKRPSLHGLGKEKPATTWGSGGPCSPTALSDIDSDTLSQGNFEVGFRSQKSIKVTREQQPEAEVGGQPGPSQDSTSHASDTVARLARSEDGGPAGSPGASDFQNCSPGWSSAFYEADCFGADVYNYVKDLERQKTNGHTELEAQSPELEQQLMIEKRNYRKTLKFYQKLLQKEKRNKGSEVRTMLSKLRGQLDEMKSKVQFLSLVKKYLQVMYAERWGLEPCALPVIVNIAAAPCDTLDFSPLDESSSLIFYNVNKHPGSGRQKKARILQAGTPLGLMAYLYSSDAFLEGYVQQFLYTFRYFCTPHDFLHFLLDRISSTLSRAHQDPTSTFTKIYRRSLCVLQAWVEDCYTVDFIRNAGLLGQLEDFISSKILPLDGTAEHLLALLEVGTERRADSASRGADLEDPKEAEEDTRPFNALCKRFSEDGITRKSFSWRLPRGNGLVLPHHKERQYTIASALPKPCFFEDFYGPYAKASEKGPYFLTEYSTNQLFTQLTLLQQELFQKCHPVHFLNSRALGVMDKSAAIPKASSSESLSAKTCSLFLPNYVQDKYLLQLLRNADDVSTWVAAEIVTSHTSKLQVNLLSKFLLIAKSCYEQRNFATAMQILGGLEHLAVRQSPAWRILPAKIAEVMEELKAVEVFLKSDSLCLMEGRRFRAQPTLPSAHLLAMHIQQLETGGFTMTNGAHRWSKLRNIAKVASQVHAFQENPYTFSPDPKLQAHLKQRIARFSGADVSILAADNRANFHQIPGEKHSRKIQDKLRRMKATFQ

Variants of: B1
Conditions: with mtap2_mouse Map2, P20357
mtap2_mouse Map2, P20357, sequence (P20357 whole entry): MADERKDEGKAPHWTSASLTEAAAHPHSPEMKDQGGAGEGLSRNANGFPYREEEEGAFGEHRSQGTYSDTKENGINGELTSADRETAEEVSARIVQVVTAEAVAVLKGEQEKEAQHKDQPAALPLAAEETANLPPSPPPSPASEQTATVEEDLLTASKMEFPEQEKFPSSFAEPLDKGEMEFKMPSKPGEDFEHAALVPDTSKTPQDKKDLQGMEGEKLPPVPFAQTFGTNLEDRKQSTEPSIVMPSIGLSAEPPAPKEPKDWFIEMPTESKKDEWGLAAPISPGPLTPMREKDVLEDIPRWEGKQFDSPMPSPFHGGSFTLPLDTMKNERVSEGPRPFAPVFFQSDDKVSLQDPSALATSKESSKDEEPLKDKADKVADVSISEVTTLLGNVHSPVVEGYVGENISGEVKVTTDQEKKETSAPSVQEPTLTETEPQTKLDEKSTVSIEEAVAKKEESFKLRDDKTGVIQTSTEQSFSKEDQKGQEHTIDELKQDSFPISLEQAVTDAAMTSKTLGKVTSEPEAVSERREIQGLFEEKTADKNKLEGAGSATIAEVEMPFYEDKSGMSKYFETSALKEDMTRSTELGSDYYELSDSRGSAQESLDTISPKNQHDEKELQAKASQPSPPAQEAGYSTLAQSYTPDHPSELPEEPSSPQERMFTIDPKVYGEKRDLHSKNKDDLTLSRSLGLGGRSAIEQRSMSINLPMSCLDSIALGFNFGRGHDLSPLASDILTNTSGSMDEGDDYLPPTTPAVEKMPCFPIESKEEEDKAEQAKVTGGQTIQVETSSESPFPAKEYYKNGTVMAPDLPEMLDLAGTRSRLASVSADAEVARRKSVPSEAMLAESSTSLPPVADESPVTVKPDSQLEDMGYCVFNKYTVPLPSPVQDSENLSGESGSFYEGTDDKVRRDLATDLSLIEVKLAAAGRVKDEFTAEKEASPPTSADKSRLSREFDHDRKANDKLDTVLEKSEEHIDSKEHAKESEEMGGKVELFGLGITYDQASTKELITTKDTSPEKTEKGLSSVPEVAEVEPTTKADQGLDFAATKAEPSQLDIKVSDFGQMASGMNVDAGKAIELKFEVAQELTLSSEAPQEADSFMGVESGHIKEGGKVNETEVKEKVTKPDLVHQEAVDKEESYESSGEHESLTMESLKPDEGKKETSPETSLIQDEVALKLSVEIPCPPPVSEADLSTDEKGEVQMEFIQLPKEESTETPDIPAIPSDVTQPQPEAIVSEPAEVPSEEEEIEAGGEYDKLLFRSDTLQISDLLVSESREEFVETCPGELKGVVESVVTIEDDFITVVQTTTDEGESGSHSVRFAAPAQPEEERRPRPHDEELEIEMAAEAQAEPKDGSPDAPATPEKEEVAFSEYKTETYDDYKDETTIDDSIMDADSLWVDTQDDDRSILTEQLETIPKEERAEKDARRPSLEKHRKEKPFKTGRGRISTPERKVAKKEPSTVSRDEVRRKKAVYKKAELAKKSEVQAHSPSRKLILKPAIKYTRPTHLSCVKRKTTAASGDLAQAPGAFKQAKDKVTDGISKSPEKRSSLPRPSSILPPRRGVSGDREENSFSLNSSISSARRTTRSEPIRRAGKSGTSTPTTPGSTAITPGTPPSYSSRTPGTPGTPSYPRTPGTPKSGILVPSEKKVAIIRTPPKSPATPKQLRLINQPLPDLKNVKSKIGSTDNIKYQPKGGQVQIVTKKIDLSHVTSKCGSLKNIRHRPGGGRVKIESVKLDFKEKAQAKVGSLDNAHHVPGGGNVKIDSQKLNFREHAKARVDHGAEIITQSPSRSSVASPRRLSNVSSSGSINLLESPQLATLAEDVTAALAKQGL
L474A was tested, and the “effect of a mutation on the interaction” value was “disrupting interaction”.

Variants of: B1
Conditions: with mtap2_mouse Map2, P20357
Remark: another data set of the same source
With L461A the “effect of a mutation on the interaction” value was “disrupting interaction”.

Variants of: B1
Conditions: with mtap2_mouse Map2, P20357
Remark: another data set of the same source
In the case of L477A, the “effect of a mutation on the interaction” value is reported as “disrupting interaction”.
